{"source": "patent US20200231654A1", "about": "(Daiichi Sankyo, published 2020)", "key": {"[1]": {"target": "T1, biotin-labeled pro-hMMP-9(cat)_His6_FLAG_Avi (human, UniProt P14780 20-449, biotin on the Avi tag (biotin ligase BirA))", "T1 construct": "Secretion signal Met1-Ala19 left out; also called pro human MMP-9 enzyme active domain; not shown: His tag (His6 by the construct's name)", "T1 sequence (P14780 other isoform, or with tags, fused parts or gaps)": "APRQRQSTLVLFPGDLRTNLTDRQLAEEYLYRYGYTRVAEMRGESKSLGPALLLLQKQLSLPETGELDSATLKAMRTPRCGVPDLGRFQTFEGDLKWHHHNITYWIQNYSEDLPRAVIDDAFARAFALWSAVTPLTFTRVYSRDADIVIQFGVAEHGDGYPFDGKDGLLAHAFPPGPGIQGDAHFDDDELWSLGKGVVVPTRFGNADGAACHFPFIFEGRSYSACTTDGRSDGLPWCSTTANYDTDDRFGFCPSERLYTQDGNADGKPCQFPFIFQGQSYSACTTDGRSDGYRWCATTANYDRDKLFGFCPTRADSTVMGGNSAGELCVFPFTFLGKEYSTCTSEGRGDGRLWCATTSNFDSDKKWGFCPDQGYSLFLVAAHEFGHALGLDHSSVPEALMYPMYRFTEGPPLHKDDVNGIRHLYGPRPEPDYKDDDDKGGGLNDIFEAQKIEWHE", "assay": "ELISA, biotinylated target on streptavidin plate, anti-S-tag HRP detection", "experimental": "(§1) The biotin-labeled pro-hMMP-9(cat)_His6_FLAG_Avi obtained in (2-1-6) or biotin-labeled active hMMP-9(cat)_FLAG_Avi obtained in (2-1-7) was immobilized on a streptavidin coated 96-well plate (Thermo Fisher Scientific). After blocking with 3% BSA, 1 to 1,000 nM of the binding peptides were added, and reacted at room temperature for 1.5 hours. After washing, goat anti-S-Tag HRP conjugated (Bethyl Laboratories, Inc.) was added, and reacted at room temperature for 1 hour. After washing, substrates of ELISA POD substrate A.B.T.S kit (Nacalai Tesque Inc.) were added, and reacted at room temperature."}, "[2]": {"target": "T2, biotin-labeled active hMMP-9(cat)_FLAG_Avi (human, UniProt P14780 107-449, biotin on the Avi tag (biotin ligase BirA))", "T2 construct": "His tag and propeptide removed; also called active human MMP-9 enzyme active domain", "T2 sequence (P14780 other isoform, or with tags, fused parts or gaps)": "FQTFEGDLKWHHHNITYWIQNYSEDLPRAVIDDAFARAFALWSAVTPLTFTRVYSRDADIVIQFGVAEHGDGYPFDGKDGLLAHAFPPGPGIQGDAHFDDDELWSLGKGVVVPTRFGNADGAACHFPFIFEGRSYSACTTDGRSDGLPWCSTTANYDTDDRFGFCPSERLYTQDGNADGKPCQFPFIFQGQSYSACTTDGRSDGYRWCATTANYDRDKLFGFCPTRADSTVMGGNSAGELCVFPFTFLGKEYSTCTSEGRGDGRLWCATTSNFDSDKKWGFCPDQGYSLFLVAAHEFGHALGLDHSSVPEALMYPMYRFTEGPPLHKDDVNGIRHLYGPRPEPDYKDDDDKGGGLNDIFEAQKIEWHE", "assay": "ELISA, biotinylated target on streptavidin plate, anti-S-tag HRP detection", "experimental": "as §1"}, "hMMP-9(cat)_E402Q_His6": {"target": "T3, hMMP-9(cat)_E402Q_His6 (human, UniProt P14780 107-449)", "T3 construct": "also called human MMP-9 enzyme active domain E402Q mutant; human MMP-9 E402Q mutant; not shown: His tag (His6 by the construct's name)", "T3 sequence (P14780 107-449 E402Q)": "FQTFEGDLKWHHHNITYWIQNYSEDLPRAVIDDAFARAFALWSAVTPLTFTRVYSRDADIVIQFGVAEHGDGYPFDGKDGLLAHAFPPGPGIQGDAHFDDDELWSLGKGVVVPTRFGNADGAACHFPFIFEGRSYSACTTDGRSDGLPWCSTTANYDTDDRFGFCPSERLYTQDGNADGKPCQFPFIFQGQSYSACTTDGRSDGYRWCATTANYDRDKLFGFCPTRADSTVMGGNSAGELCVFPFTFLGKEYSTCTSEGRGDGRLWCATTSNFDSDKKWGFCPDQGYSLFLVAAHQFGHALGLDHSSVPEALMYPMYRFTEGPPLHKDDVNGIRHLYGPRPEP", "assay": "size exclusion chromatography of the mixture", "experimental": "After the reaction, 10 μl of the reaction solution was analyzed by size exclusion chromatography. The chromatographic conditions were as follows."}, "active hMMP-9(cat)_V398A": {"target": "active hMMP-9(cat)_V398A (human, UniProt P14780 107-449)", "sequence (P14780 107-449 V398A)": "as the sequence (P14780 107-449 E402Q) above, with V292A, Q296E counted along it", "assay": "cell-based or functional assay"}, "active hMMP-9(cat)_L187A": {"target": "active hMMP-9(cat)_L187A (human, UniProt P14780 107-449)", "sequence (P14780 107-449 L187A)": "as the sequence (P14780 107-449 E402Q) above, with L81A, Q296E counted along it", "assay": "cell-based or functional assay"}, "active hMMP-9(cat)_Y420A": {"target": "active hMMP-9(cat)_Y420A (human, UniProt P14780 107-449)", "sequence (P14780 107-449 Y420A)": "as the sequence (P14780 107-449 E402Q) above, with Q296E, Y314A counted along it", "assay": "cell-based or functional assay"}, "active hMMP-9(cat)_Y179A": {"target": "active hMMP-9(cat)_Y179A (human, UniProt P14780 107-449)", "sequence (P14780 107-449 Y179A)": "as the sequence (P14780 107-449 E402Q) above, with Y73A, Q296E counted along it", "assay": "cell-based or functional assay"}, "active hMMP-9(cat)_Y393A": {"target": "active hMMP-9(cat)_Y393A (human, UniProt P14780 107-449)", "sequence (P14780 107-449 Y393A)": "as the sequence (P14780 107-449 E402Q) above, with Y287A, Q296E counted along it", "assay": "cell-based or functional assay"}, "active hMMP-9(cat)_F110A": {"target": "active hMMP-9(cat)_F110A (human, UniProt P14780 107-449)", "sequence (P14780 107-449 F110A)": "as the sequence (P14780 107-449 E402Q) above, with F4A, Q296E counted along it", "assay": "cell-based or functional assay"}, "active hMMP-9(cat)_F192A": {"target": "active hMMP-9(cat)_F192A (human, UniProt P14780 107-449)", "sequence (P14780 107-449 F192A)": "as the sequence (P14780 107-449 E402Q) above, with F86A, Q296E counted along it", "assay": "cell-based or functional assay"}, "active hMMP-9(cat)": {"target": "active hMMP-9(cat) (human, UniProt P14780 107-449)", "sequence (P14780 107-449)": "as the sequence (P14780 107-449 E402Q) above, with Q296E counted along it", "assay": "cell-based or functional assay"}, "active hMMP-9(cat)_L397A": {"target": "active hMMP-9(cat)_L397A (human, UniProt P14780 107-449)", "sequence (P14780 107-449 L397A)": "as the sequence (P14780 107-449 E402Q) above, with L291A, Q296E counted along it", "assay": "cell-based or functional assay"}, "active hMMP-9(cat)_Q199G": {"target": "active hMMP-9(cat)_Q199G (human, UniProt P14780 107-449)", "sequence (P14780 107-449 Q199G)": "as the sequence (P14780 107-449 E402Q) above, with Q93G, Q296E counted along it", "assay": "cell-based or functional assay"}, "active hMMP-9(cat)_Y423A": {"target": "active hMMP-9(cat)_Y423A (human, UniProt P14780 107-449)", "sequence (P14780 107-449 Y423A)": "as the sequence (P14780 107-449 E402Q) above, with Q296E, Y317A counted along it", "assay": "cell-based or functional assay"}, "active hMMP-9(cat)_M422I": {"target": "active hMMP-9(cat)_M422I (human, UniProt P14780 107-449)", "sequence (P14780 107-449 M422I)": "as the sequence (P14780 107-449 E402Q) above, with Q296E, M316I counted along it", "assay": "cell-based or functional assay"}, "active hMMP-9(cat)_P193A": {"target": "active hMMP-9(cat)_P193A (human, UniProt P14780 107-449)", "sequence (P14780 107-449 P193A)": "as the sequence (P14780 107-449 E402Q) above, with P87A, Q296E counted along it", "assay": "cell-based or functional assay"}, "active hMMP-9(cat)_R424T": {"target": "active hMMP-9(cat)_R424T (human, UniProt P14780 107-449)", "sequence (P14780 107-449 R424T)": "as the sequence (P14780 107-449 E402Q) above, with Q296E, R318T counted along it", "assay": "cell-based or functional assay"}, "active hMMP-9(cat)_D185A": {"target": "active hMMP-9(cat)_D185A (human, UniProt P14780 107-449)", "sequence (P14780 107-449 D185A)": "as the sequence (P14780 107-449 E402Q) above, with D79A, Q296E counted along it", "assay": "cell-based or functional assay"}}, "data": [{"binder": "wild type SPINK2 (other, also called WT; human SPINK2) GSGMKETAAAKFERQHMDSPDLGTDDDDKAMADIGSANSDPQFGLFSKYRTPNCSQYRLPGCPRHFNPVCGSDMSTYANECTLCMKIREGGHNIKIIRNGPCGASAAA", "values": [{"measurement": "binding result", "setting": "[1]", "result": "no binding (tested: 1 to 1,000 nM)"}, {"measurement": "binding result", "setting": "[2]", "result": "no binding (tested: 1 to 1,000 nM)"}]}, {"binder": "active MMP-9-binding peptide M91001 (designed binder, SPINK2 mutant as prepared in (1-2): Stag+linker 1 at the N-terminal, C-terminal 6-mer at the C-terminal) GSGMKETAAAKFERQHMDSPDLGTDDDDKAMADIGSANSDPQFGLFSKYRTPNCQRGIGPSCQMSYKPVCGSDMSTYANECTLCMKIREGGHNIKIIRNGPCGASAAA", "values": [{"measurement": "binding result", "setting": "[1]", "result": "no binding (tested: 1 µM)"}, {"measurement": "binding result", "setting": "[2]", "result": "binds"}]}, {"binder": "active MMP-9-binding peptide M91002 (designed binder, SPINK2 mutant as prepared in (1-2): Stag+linker 1 at the N-terminal, C-terminal 6-mer at the C-terminal) GSGMKETAAAKFERQHMDSPDLGTDDDDKAMADIGSANSDPQFGLFSKYRTPNCRTGRGPACQMGFQPVCGSDMSTYANECTLCMKIREGGHNIKIIRNGPCGASAAA", "values": [{"measurement": "binding result", "setting": "[1]", "result": "no binding (tested: 1 µM)"}, {"measurement": "binding result", "setting": "[2]", "result": "binds"}]}, {"binder": "active MMP-9-binding peptide M91004 (designed binder, SPINK2 mutant as prepared in (1-2): Stag+linker 1 at the N-terminal, C-terminal 6-mer at the C-terminal) GSGMKETAAAKFERQHMDSPDLGTDDDDKAMADIGSANSDPQFGLFSKYRTPNCRQRKGPSCQMAFQPVCGSDMSTYANECTLCMKIREGGHNIKIIRNGPCGASAAA", "values": [{"measurement": "binding result", "setting": "[1]", "result": "no binding (tested: 1 µM)"}, {"measurement": "binding result", "setting": "[2]", "result": "binds"}]}, {"binder": "active MMP-9-binding peptide M91005 (designed binder, SPINK2 mutant as prepared in (1-2): Stag+linker 1 at the N-terminal, C-terminal 6-mer at the C-terminal) GSGMKETAAAKFERQHMDSPDLGTDDDDKAMADIGSANSDPQFGLFSKYRTPNCRKRGGPSCQMSYNPVCGSDMSTYANECTLCMKIREGGHNIKIIRNGPCGASAAA", "values": [{"measurement": "binding result", "setting": "hMMP-9(cat)_E402Q_His6", "result": "no binding (tested: 75 µM peptide with 25 µM target)"}, {"measurement": "binding result", "setting": "[1]", "result": "no binding (tested: 1 µM)"}, {"measurement": "IC50 of enzyme inhibition relative to the wild type", "setting": "active hMMP-9(cat)_V398A", "result": 2.2, "unit": "times"}, {"measurement": "IC50 of enzyme inhibition relative to the wild type", "setting": "active hMMP-9(cat)_L187A", "result": 6.7, "unit": "times"}, {"measurement": "IC50 of enzyme inhibition relative to the wild type", "setting": "active hMMP-9(cat)_Y420A", "result": 3.1, "unit": "times"}, {"measurement": "IC50 of enzyme inhibition relative to the wild type", "setting": "active hMMP-9(cat)_Y179A", "result": 3.2, "unit": "times"}, {"measurement": "IC50 of enzyme inhibition relative to the wild type", "setting": "active hMMP-9(cat)_Y393A", "result": 2.7, "unit": "times"}, {"measurement": "IC50 of enzyme inhibition relative to the wild type", "setting": "active hMMP-9(cat)_F110A", "result": 4, "unit": "times"}, {"measurement": "IC50 of enzyme inhibition relative to the wild type", "setting": "active hMMP-9(cat)_F192A", "result": "> 57.8", "unit": "times"}, {"measurement": "IC50 of inhibition of substrate peptide degradation", "setting": "active hMMP-9(cat)", "result": 17, "unit": "nM"}, {"measurement": "IC50 of enzyme inhibition relative to the wild type", "setting": "active hMMP-9(cat)_L397A", "result": 2.2, "unit": "times"}, {"measurement": "IC50 of enzyme inhibition relative to the wild type", "setting": "active hMMP-9(cat)_Q199G", "result": 2.3, "unit": "times"}, {"measurement": "IC50 of enzyme inhibition relative to the wild type", "setting": "active hMMP-9(cat)_Y423A", "result": 13.2, "unit": "times"}, {"measurement": "IC50 of enzyme inhibition relative to the wild type", "setting": "active hMMP-9(cat)_M422I", "result": 2.6, "unit": "times"}]}, {"binder": "active MMP-9-binding peptide M91010 (designed binder, SPINK2 mutant as prepared in (1-2): Stag+linker 1 at the N-terminal, C-terminal 6-mer at the C-terminal) GSGMKETAAAKFERQHMDSPDLGTDDDDKAMADIGSANSDPQFGLFSKYRTPNCRKVGEPACQMSFNPVCGSDMSTYANECTLCMKIREGGHNIKIIRNGPCGASAAA", "values": [{"measurement": "binding result", "setting": "[1]", "result": "no binding (tested: 1 µM)"}, {"measurement": "binding result", "setting": "[2]", "result": "binds"}]}, {"binder": "active MMP-9-binding peptide M91011 (designed binder, SPINK2 mutant as prepared in (1-2): Stag+linker 1 at the N-terminal, C-terminal 6-mer at the C-terminal) GSGMKETAAAKFERQHMDSPDLGTDDDDKAMADIGSANSDPQFGLFSKYRTPNCMMYKYAQCSHKSQPVCGSDMSTYANECTLCMKIREGGHNIKIIRNGPCGASAAA", "values": [{"measurement": "binding result", "setting": "hMMP-9(cat)_E402Q_His6", "result": "no binding (tested: 75 µM peptide with 25 µM target)"}, {"measurement": "binding result", "setting": "[1]", "result": "no binding (tested: 1 µM)"}, {"measurement": "IC50 of enzyme inhibition relative to the wild type", "setting": "active hMMP-9(cat)_V398A", "result": 4.8, "unit": "times"}, {"measurement": "IC50 of enzyme inhibition relative to the wild type", "setting": "active hMMP-9(cat)_P193A", "result": 6.5, "unit": "times"}, {"measurement": "IC50 of enzyme inhibition relative to the wild type", "setting": "active hMMP-9(cat)_Y179A", "result": 4.9, "unit": "times"}, {"measurement": "IC50 of enzyme inhibition relative to the wild type", "setting": "active hMMP-9(cat)_R424T", "result": 2.7, "unit": "times"}, {"measurement": "IC50 of enzyme inhibition relative to the wild type", "setting": "active hMMP-9(cat)_Y393A", "result": "> 57.6", "unit": "times"}, {"measurement": "IC50 of enzyme inhibition relative to the wild type", "setting": "active hMMP-9(cat)_F192A", "result": 5, "unit": "times"}, {"measurement": "IC50 of inhibition of substrate peptide degradation", "setting": "active hMMP-9(cat)", "result": 17, "unit": "nM"}, {"measurement": "IC50 of enzyme inhibition relative to the wild type", "setting": "active hMMP-9(cat)_D185A", "result": 19, "unit": "times"}, {"measurement": "IC50 of enzyme inhibition relative to the wild type", "setting": "active hMMP-9(cat)_L397A", "result": 3.5, "unit": "times"}, {"measurement": "IC50 of enzyme inhibition relative to the wild type", "setting": "active hMMP-9(cat)_Y423A", "result": "> 20", "unit": "times"}, {"measurement": "IC50 of enzyme inhibition relative to the wild type", "setting": "active hMMP-9(cat)_M422I", "result": 2.6, "unit": "times"}]}, {"binder": "active MMP-9-binding peptide M91012 (designed binder, SPINK2 mutant as prepared in (1-2): Stag+linker 1 at the N-terminal, C-terminal 6-mer at the C-terminal) GSGMKETAAAKFERQHMDSPDLGTDDDDKAMADIGSANSDPQFGLFSKYRTPNCRVRGGPSCQMSFNPVCGSDMSTYANECTLCMKIREGGHNIKIIRNGPCGASAAA", "values": [{"measurement": "binding result", "setting": "[1]", "result": "no binding (tested: 1 µM)"}, {"measurement": "binding result", "setting": "[2]", "result": "binds"}]}, {"binder": "active MMP-9-binding peptide M91014 (designed binder, SPINK2 mutant as prepared in (1-2): Stag+linker 1 at the N-terminal, C-terminal 6-mer at the C-terminal) GSGMKETAAAKFERQHMDSPDLGTDDDDKAMADIGSANSDPQFGLFSKYRTPNCVMYKYAQCSHKYKPVCGSDMSTYANECTLCMKIREGGHNIKIIRNGPCGASAAA", "values": [{"measurement": "binding result", "setting": "[1]", "result": "no binding (tested: 1 µM)"}, {"measurement": "binding result", "setting": "[2]", "result": "binds"}]}]}
